# Measurements as given in patent publication US20220204580A1 (AstraZeneca / MedImmune, published 2022).
# Numbered stars: 1 amine (or outer) side, 2 acyl side, 3 side chain; on linkers, the order of the positions; unused ones are H or OH. Bridge positions count the residues as written; N and C are the ends. Square brackets hold non-standard residues; d marks the D form. Side chains are listed from the residue outwards. Ends that are not written are not given here. * marks the point of attachment. C18 diacid = O=C(O)CCCCCCCCCCCCCCCCC(=O)*; γGlu = O=C(O)[C@H](CCC(=O)[*:2])N[*:1]; αMeF = C[C@](N)(Cc1ccccc1)C(=O)O; Dab = NCC[C@H](N)C(=O)O; Aib = CC(C)(N)C(=O)O
# T1: human amylin receptor (calcitonin receptor co-expressed with receptor activity modifying protein, RAMP3) (human, UniProt P30988 25-474; O60896 24-148)
# T1 sequence (looked up) 1: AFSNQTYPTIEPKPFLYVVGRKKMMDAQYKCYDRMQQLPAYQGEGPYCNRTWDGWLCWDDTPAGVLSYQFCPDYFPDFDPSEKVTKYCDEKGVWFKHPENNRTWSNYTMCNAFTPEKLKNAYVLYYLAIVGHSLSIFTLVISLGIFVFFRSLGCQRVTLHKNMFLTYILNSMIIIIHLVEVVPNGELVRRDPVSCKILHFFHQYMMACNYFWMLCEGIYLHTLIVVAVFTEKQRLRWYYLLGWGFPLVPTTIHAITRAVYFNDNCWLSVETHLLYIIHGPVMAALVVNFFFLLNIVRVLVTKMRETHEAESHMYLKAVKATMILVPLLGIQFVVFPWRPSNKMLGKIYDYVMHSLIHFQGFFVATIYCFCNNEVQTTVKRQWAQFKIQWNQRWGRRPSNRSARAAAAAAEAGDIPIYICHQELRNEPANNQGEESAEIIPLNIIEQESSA
# T1 sequence (looked up) 2: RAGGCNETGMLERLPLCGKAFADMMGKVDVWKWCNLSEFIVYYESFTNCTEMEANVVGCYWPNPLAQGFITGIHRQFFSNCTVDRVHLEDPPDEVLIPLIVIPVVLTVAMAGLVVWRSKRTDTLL
# T2: human calcitonin receptor (human, UniProt P30988 25-474)
# T2 sequence (looked up): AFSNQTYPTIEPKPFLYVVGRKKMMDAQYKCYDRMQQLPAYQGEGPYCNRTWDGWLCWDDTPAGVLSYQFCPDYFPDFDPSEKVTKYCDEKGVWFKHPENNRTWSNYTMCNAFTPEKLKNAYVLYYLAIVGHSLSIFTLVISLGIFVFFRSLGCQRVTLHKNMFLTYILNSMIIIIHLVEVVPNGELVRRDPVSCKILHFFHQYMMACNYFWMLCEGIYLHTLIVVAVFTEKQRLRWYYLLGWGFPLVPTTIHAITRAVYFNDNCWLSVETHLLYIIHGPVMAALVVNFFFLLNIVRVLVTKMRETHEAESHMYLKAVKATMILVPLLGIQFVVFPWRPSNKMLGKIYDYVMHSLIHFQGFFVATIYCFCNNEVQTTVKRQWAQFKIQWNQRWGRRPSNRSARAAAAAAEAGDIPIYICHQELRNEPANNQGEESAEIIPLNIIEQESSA
# B1: Peptide 151 (SEQ ID NO: 151) (peptide)
# peptide: K([γGlu-C18 diacid])CNTATCATQRLANFL[Aib]HSSNNFGPI[dL]PPTNVGSNTY-NH2
# modifications: disulfide 2-7; N-terminus assumed
# SMILES: CC[C@H](C)[C@H](NC(=O)[C@@H]1CCCN1C(=O)CNC(=O)[C@H](Cc1ccccc1)NC(=O)[C@H](CC(N)=O)NC(=O)[C@H](CC(N)=O)NC(=O)[C@H](CO)NC(=O)[C@H](CO)NC(=O)[C@H](Cc1c[nH]cn1)NC(=O)C(C)(C)NC(=O)[C@H](CC(C)C)NC(=O)[C@H](Cc1ccccc1)NC(=O)[C@H](CC(N)=O)NC(=O)[C@H](C)NC(=O)[C@H](CC(C)C)NC(=O)[C@H](CCCNC(=N)N)NC(=O)[C@H](CCC(N)=O)NC(=O)[C@@H](NC(=O)[C@H](C)NC(=O)[C@@H]1CSSC[C@H](NC(=O)[C@@H](N)CCCCNC(=O)CC[C@H](NC(=O)CCCCCCCCCCCCCCCCC(=O)O)C(=O)O)C(=O)N[C@@H](CC(N)=O)C(=O)N[C@@H]([C@@H](C)O)C(=O)N[C@@H](C)C(=O)N[C@@H]([C@@H](C)O)C(=O)N1)[C@@H](C)O)C(=O)N[C@H](CC(C)C)C(=O)N1CCC[C@H]1C(=O)N1CCC[C@H]1C(=O)N[C@H](C(=O)N[C@@H](CC(N)=O)C(=O)N[C@H](C(=O)NCC(=O)N[C@@H](CO)C(=O)N[C@@H](CC(N)=O)C(=O)N[C@H](C(=O)N[C@@H](Cc1ccc(O)cc1)C(N)=O)[C@@H](C)O)C(C)C)[C@@H](C)O
# B2: Peptide 148 (SEQ ID NO: 148) (peptide)
# peptide: K([γGlu-C18 diacid])KCNTATCATQRLANFL[Aib]HSSNNFGPILPPTNVGPNTY-NH2
# modifications: disulfide 3-8; N-terminus assumed
# SMILES: CC[C@H](C)[C@H](NC(=O)[C@@H]1CCCN1C(=O)CNC(=O)[C@H](Cc1ccccc1)NC(=O)[C@H](CC(N)=O)NC(=O)[C@H](CC(N)=O)NC(=O)[C@H](CO)NC(=O)[C@H](CO)NC(=O)[C@H](Cc1c[nH]cn1)NC(=O)C(C)(C)NC(=O)[C@H](CC(C)C)NC(=O)[C@H](Cc1ccccc1)NC(=O)[C@H](CC(N)=O)NC(=O)[C@H](C)NC(=O)[C@H](CC(C)C)NC(=O)[C@H](CCCNC(=N)N)NC(=O)[C@H](CCC(N)=O)NC(=O)[C@@H](NC(=O)[C@H](C)NC(=O)[C@@H]1CSSC[C@H](NC(=O)[C@H](CCCCN)NC(=O)[C@@H](N)CCCCNC(=O)CC[C@H](NC(=O)CCCCCCCCCCCCCCCCC(=O)O)C(=O)O)C(=O)N[C@@H](CC(N)=O)C(=O)N[C@@H]([C@@H](C)O)C(=O)N[C@@H](C)C(=O)N[C@@H]([C@@H](C)O)C(=O)N1)[C@@H](C)O)C(=O)N[C@@H](CC(C)C)C(=O)N1CCC[C@H]1C(=O)N1CCC[C@H]1C(=O)N[C@H](C(=O)N[C@@H](CC(N)=O)C(=O)N[C@H](C(=O)NCC(=O)N1CCC[C@H]1C(=O)N[C@@H](CC(N)=O)C(=O)N[C@H](C(=O)N[C@@H](Cc1ccc(O)cc1)C(N)=O)[C@@H](C)O)C(C)C)[C@@H](C)O
# B3: Peptide 147 (SEQ ID NO: 147) (peptide)
# peptide: K([γGlu-C18 diacid])KCNTATCATQRLANFL[Aib]HSSNHFGPILPPTNVGSETY-NH2
# modifications: disulfide 3-8; N-terminus assumed
# SMILES: CC[C@H](C)[C@H](NC(=O)[C@@H]1CCCN1C(=O)CNC(=O)[C@H](Cc1ccccc1)NC(=O)[C@H](Cc1c[nH]cn1)NC(=O)[C@H](CC(N)=O)NC(=O)[C@H](CO)NC(=O)[C@H](CO)NC(=O)[C@H](Cc1c[nH]cn1)NC(=O)C(C)(C)NC(=O)[C@H](CC(C)C)NC(=O)[C@H](Cc1ccccc1)NC(=O)[C@H](CC(N)=O)NC(=O)[C@H](C)NC(=O)[C@H](CC(C)C)NC(=O)[C@H](CCCNC(=N)N)NC(=O)[C@H](CCC(N)=O)NC(=O)[C@@H](NC(=O)[C@H](C)NC(=O)[C@@H]1CSSC[C@H](NC(=O)[C@H](CCCCN)NC(=O)[C@@H](N)CCCCNC(=O)CC[C@H](NC(=O)CCCCCCCCCCCCCCCCC(=O)O)C(=O)O)C(=O)N[C@@H](CC(N)=O)C(=O)N[C@@H]([C@@H](C)O)C(=O)N[C@@H](C)C(=O)N[C@@H]([C@@H](C)O)C(=O)N1)[C@@H](C)O)C(=O)N[C@@H](CC(C)C)C(=O)N1CCC[C@H]1C(=O)N1CCC[C@H]1C(=O)N[C@H](C(=O)N[C@@H](CC(N)=O)C(=O)N[C@H](C(=O)NCC(=O)N[C@@H](CO)C(=O)N[C@@H](CCC(=O)O)C(=O)N[C@H](C(=O)N[C@@H](Cc1ccc(O)cc1)C(N)=O)[C@@H](C)O)C(C)C)[C@@H](C)O
# B4: Peptide 154 (SEQ ID NO: 154) (peptide)
# peptide: K([γGlu-C18 diacid])KCNTATCATQRLANFL[Aib]HSSGNFGPILPPTNVGSNTY-NH2
# modifications: disulfide 3-8; N-terminus assumed
# SMILES: CC[C@H](C)[C@H](NC(=O)[C@@H]1CCCN1C(=O)CNC(=O)[C@H](Cc1ccccc1)NC(=O)[C@H](CC(N)=O)NC(=O)CNC(=O)[C@H](CO)NC(=O)[C@H](CO)NC(=O)[C@H](Cc1c[nH]cn1)NC(=O)C(C)(C)NC(=O)[C@H](CC(C)C)NC(=O)[C@H](Cc1ccccc1)NC(=O)[C@H](CC(N)=O)NC(=O)[C@H](C)NC(=O)[C@H](CC(C)C)NC(=O)[C@H](CCCNC(=N)N)NC(=O)[C@H](CCC(N)=O)NC(=O)[C@@H](NC(=O)[C@H](C)NC(=O)[C@@H]1CSSC[C@H](NC(=O)[C@H](CCCCN)NC(=O)[C@@H](N)CCCCNC(=O)CC[C@H](NC(=O)CCCCCCCCCCCCCCCCC(=O)O)C(=O)O)C(=O)N[C@@H](CC(N)=O)C(=O)N[C@@H]([C@@H](C)O)C(=O)N[C@@H](C)C(=O)N[C@@H]([C@@H](C)O)C(=O)N1)[C@@H](C)O)C(=O)N[C@@H](CC(C)C)C(=O)N1CCC[C@H]1C(=O)N1CCC[C@H]1C(=O)N[C@H](C(=O)N[C@@H](CC(N)=O)C(=O)N[C@H](C(=O)NCC(=O)N[C@@H](CO)C(=O)N[C@@H](CC(N)=O)C(=O)N[C@H](C(=O)N[C@@H](Cc1ccc(O)cc1)C(N)=O)[C@@H](C)O)C(C)C)[C@@H](C)O
# B5: Peptide 150 (SEQ ID NO: 150) (peptide)
# peptide: K([γGlu-C18 diacid])CNTATCATQRLANFL[Aib]HSS[Dab]NFGPILPPTNVGSNTY-NH2
# modifications: disulfide 2-7; N-terminus assumed
# SMILES: CC[C@H](C)[C@H](NC(=O)[C@@H]1CCCN1C(=O)CNC(=O)[C@H](Cc1ccccc1)NC(=O)[C@H](CC(N)=O)NC(=O)[C@H](CCN)NC(=O)[C@H](CO)NC(=O)[C@H](CO)NC(=O)[C@H](Cc1c[nH]cn1)NC(=O)C(C)(C)NC(=O)[C@H](CC(C)C)NC(=O)[C@H](Cc1ccccc1)NC(=O)[C@H](CC(N)=O)NC(=O)[C@H](C)NC(=O)[C@H](CC(C)C)NC(=O)[C@H](CCCNC(=N)N)NC(=O)[C@H](CCC(N)=O)NC(=O)[C@@H](NC(=O)[C@H](C)NC(=O)[C@@H]1CSSC[C@H](NC(=O)[C@@H](N)CCCCNC(=O)CC[C@H](NC(=O)CCCCCCCCCCCCCCCCC(=O)O)C(=O)O)C(=O)N[C@@H](CC(N)=O)C(=O)N[C@@H]([C@@H](C)O)C(=O)N[C@@H](C)C(=O)N[C@@H]([C@@H](C)O)C(=O)N1)[C@@H](C)O)C(=O)N[C@@H](CC(C)C)C(=O)N1CCC[C@H]1C(=O)N1CCC[C@H]1C(=O)N[C@H](C(=O)N[C@@H](CC(N)=O)C(=O)N[C@H](C(=O)NCC(=O)N[C@@H](CO)C(=O)N[C@@H](CC(N)=O)C(=O)N[C@H](C(=O)N[C@@H](Cc1ccc(O)cc1)C(N)=O)[C@@H](C)O)C(C)C)[C@@H](C)O
# B6: Peptide 16 (SEQ ID NO: 16) (peptide)
# peptide: K([γGlu-C18 diacid])CNTATCATQRLANFLRHSSNN[αMeF]GPILPPTEVGSNTY-NH2
# modifications: disulfide 2-7; N-terminus assumed
# SMILES: CC[C@H](C)[C@H](NC(=O)[C@@H]1CCCN1C(=O)CNC(=O)[C@](C)(Cc1ccccc1)NC(=O)[C@H](CC(N)=O)NC(=O)[C@H](CC(N)=O)NC(=O)[C@H](CO)NC(=O)[C@H](CO)NC(=O)[C@H](Cc1c[nH]cn1)NC(=O)[C@H](CCCNC(=N)N)NC(=O)[C@H](CC(C)C)NC(=O)[C@H](Cc1ccccc1)NC(=O)[C@H](CC(N)=O)NC(=O)[C@H](C)NC(=O)[C@H](CC(C)C)NC(=O)[C@H](CCCNC(=N)N)NC(=O)[C@H](CCC(N)=O)NC(=O)[C@@H](NC(=O)[C@H](C)NC(=O)[C@@H]1CSSC[C@H](NC(=O)[C@@H](N)CCCCNC(=O)CC[C@H](NC(=O)CCCCCCCCCCCCCCCCC(=O)O)C(=O)O)C(=O)N[C@@H](CC(N)=O)C(=O)N[C@@H]([C@@H](C)O)C(=O)N[C@@H](C)C(=O)N[C@@H]([C@@H](C)O)C(=O)N1)[C@@H](C)O)C(=O)N[C@@H](CC(C)C)C(=O)N1CCC[C@H]1C(=O)N1CCC[C@H]1C(=O)N[C@H](C(=O)N[C@@H](CCC(=O)O)C(=O)N[C@H](C(=O)NCC(=O)N[C@@H](CO)C(=O)N[C@@H](CC(N)=O)C(=O)N[C@H](C(=O)N[C@@H](Cc1ccc(O)cc1)C(N)=O)[C@@H](C)O)C(C)C)[C@@H](C)O
# Columns and labels:
# [1] = target: T1, human amylin receptor (calcitonin …); experiment: cell-based or functional assay
# [2] = target: T2, human calcitonin receptor; experiment: cell-based or functional assay
Binder,EC50 (cAMP production) [1] [nM],Ratio (EC50 hCTR / EC50 hAMYR3) [1],EC50 (cAMP production) [2] [nM]
B1,0.061,14.7,0.898
B2,0.191,3.8,0.728
B3,0.802,1.9,1.51
B4,0.574,2.7,1.54
B5,0.179,23.4,4.18
B6,0.221,9,2.02
